Experimental data as given in US20240293565A1 (BEIJING SINOTAU BIO PHARMACEUTICALS TECHNOLOGY, published 2024).

Assays:
[1] = biological target: T1, human HER3 on the cell surface (human, UniProt P21860 20-1342); experiment: cell-based or functional assay
[2] = biological target: T1, human HER3 on the cell surface; experiment: flow cytometry on SP2/0-HER3 cells
Description: ch3F8-MMAE maintains the similar binding affinity to ch3F8. ch3F8-MMAE binding affinity with HER3 was measured with SP2/0-HER3 by FACS.

T1 sequence (P21860 20-1342): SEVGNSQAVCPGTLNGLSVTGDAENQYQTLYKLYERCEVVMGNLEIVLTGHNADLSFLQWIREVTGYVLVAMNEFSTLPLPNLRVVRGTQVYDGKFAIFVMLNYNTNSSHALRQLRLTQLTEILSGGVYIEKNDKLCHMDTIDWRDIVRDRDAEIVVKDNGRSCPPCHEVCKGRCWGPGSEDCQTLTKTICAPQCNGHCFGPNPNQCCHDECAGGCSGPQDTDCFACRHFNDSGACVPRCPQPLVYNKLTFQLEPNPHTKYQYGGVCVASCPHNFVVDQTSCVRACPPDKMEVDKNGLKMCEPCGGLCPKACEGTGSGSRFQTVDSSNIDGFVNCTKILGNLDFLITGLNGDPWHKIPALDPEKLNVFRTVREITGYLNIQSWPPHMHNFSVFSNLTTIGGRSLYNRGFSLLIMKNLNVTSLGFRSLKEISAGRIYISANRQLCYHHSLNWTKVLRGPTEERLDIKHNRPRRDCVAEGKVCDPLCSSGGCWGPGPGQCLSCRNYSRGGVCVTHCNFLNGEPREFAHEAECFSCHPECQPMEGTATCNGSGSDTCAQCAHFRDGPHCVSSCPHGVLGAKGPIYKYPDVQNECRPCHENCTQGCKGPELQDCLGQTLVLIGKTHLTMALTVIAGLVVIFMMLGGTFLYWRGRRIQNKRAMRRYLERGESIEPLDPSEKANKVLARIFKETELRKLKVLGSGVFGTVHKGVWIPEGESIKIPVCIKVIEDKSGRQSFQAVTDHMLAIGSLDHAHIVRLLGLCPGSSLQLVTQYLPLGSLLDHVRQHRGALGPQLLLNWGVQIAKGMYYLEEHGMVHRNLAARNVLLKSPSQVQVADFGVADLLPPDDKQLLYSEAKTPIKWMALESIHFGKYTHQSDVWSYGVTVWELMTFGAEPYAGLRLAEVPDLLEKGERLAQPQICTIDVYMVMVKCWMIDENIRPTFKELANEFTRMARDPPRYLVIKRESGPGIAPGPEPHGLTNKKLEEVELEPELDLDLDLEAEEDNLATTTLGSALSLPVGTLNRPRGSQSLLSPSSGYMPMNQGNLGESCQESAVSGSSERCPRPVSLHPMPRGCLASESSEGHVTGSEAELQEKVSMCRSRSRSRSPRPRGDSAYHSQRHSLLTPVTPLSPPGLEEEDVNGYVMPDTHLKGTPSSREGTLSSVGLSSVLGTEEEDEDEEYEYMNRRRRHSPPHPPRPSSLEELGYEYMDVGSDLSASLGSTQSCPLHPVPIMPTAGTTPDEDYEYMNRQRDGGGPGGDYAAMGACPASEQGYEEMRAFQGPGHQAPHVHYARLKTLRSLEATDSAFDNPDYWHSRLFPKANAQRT

| Binder | cytotoxicity IC50 (nM), ATPlite, 7901 cells [1] | cytotoxicity IC50 (nM), ATPlite, HT-29 cells [1] | cytotoxicity IC50 (nM), ATPlite, MCF-7 cells [1] | cytotoxicity IC50 (nM), ATPlite, MDA-MB-453 cells [1] | cytotoxicity IC50 (nM), ATPlite, N87 cells [1] | cytotoxicity IC50 (nM), ATPlite, SK-BR-3 cells [1] | cytotoxicity IC50 (nM), ATPlite, SP2/0-HER3 cells [1] | EC50 (read off the curve) [2] |
| --- | --- | --- | --- | --- | --- | --- | --- | --- |
| ch3F8-MMAE (antibody, V domains shown, MC-VC-MMAE conjugated to cysteine residues of the antibody after reduction of disulfide bonds (positions not stated), DAR around 3.8) VH: DVQLQESGPGLVKPSQSLSLTCSVTGYSITSAYYWNWIRQFPGDKLEWMGYISYDGRNNFNPSLKNRISITRDTSKNQFFLKLNSVTSGDTATYYCARDGDYDYFDYWGQGTTLTVSS VL: DIQMTQTTSSLSASLGDRVTISCRASQDISNYLNWYQQKPDGTFKLLIYYTSILHSGVPSRFSGSGSGTDYSLTISNLEQEDIATYFCQQGDTLPPTFGAGTKLELK | 5.74 nM | 4.67 nM | 9.49 nM | 0.0401 nM | 1.91 nM | 0.159 nM | 0.486 nM |  |
| chimeric 3F8 (antibody, human IgG1, V domains shown, also called ch3F8; Ch3F8) VH: DVQLQESGPGLVKPSQSLSLTCSVTGYSITSAYYWNWIRQFPGDKLEWMGYISYDGRNNFNPSLKNRISITRDTSKNQFFLKLNSVTSGDTATYYCARDGDYDYFDYWGQGTTLTVSS VL: DIQMTQTTSSLSASLGDRVTISCRASQDISNYLNWYQQKPDGTFKLLIYYTSILHSGVPSRFSGSGSGTDYSLTISNLEQEDIATYFCQQGDTLPPTFGAGTKLELK |  |  |  |  |  |  |  | ~80 ng/mL |
